From patent US20230190900 (published 2023) come the findings set out here.

One test concerns the target T1, human FcγRIIc (CD32C) (human, UniProt P31995).
T1 chain: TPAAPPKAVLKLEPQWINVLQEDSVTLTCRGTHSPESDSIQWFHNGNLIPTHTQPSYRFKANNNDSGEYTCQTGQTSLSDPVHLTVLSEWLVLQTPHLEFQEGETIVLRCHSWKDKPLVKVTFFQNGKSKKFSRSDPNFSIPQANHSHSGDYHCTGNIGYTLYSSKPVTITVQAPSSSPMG
As to the kind of experiment: SPR. On the technique in general: SPR reads the build-up and loss of mass on a sensor chip optically.

Another test deals with T2, murine FcγRIII (mouse, UniProt P08508).
T2 chain: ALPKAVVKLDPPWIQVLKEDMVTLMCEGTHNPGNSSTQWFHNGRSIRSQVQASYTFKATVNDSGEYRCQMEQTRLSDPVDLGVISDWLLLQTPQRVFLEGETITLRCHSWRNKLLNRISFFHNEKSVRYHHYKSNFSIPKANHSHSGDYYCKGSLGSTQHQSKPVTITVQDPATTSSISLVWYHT
As to the kind of experiment: SPR.

In the next test the target is T3, human FcγRI (CD64) (human, UniProt P12314).
T3 chain: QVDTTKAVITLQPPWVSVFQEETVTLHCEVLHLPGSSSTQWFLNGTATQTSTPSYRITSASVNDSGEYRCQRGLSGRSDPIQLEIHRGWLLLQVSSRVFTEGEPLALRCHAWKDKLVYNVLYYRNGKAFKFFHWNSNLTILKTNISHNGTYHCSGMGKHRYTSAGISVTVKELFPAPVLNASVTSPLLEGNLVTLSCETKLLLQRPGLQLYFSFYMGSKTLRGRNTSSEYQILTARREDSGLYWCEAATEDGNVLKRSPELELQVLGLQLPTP
As to the kind of experiment: SPR.

The target of another test is T4, murine FcγRIV (CD16-2) (mouse, UniProt A0A0B4J1G0).
T4 chain: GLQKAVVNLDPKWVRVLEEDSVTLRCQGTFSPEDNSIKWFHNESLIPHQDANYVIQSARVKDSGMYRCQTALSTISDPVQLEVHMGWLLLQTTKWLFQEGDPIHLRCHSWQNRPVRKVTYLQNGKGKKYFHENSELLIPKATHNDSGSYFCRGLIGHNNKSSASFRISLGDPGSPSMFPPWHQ
Briefly: SPR.

The target in another test is T5, murine FcRn (mouse, UniProt Q61559).
T5 chain 1: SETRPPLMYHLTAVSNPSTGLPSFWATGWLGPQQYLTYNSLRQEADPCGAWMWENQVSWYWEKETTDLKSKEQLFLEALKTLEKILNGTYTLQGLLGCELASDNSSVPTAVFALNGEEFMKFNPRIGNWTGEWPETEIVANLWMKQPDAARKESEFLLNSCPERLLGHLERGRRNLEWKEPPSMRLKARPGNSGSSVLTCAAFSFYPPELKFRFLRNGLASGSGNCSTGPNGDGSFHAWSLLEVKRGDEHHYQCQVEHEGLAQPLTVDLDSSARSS
T5 chain 2: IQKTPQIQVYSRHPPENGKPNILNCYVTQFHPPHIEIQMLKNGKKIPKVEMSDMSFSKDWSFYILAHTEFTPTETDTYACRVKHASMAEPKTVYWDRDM
As to the kind of experiment: SPR, pH 6.0.

For the next test, the target named is T6, murine FcγRIIb (mouse, UniProt P08101).
T6 chain: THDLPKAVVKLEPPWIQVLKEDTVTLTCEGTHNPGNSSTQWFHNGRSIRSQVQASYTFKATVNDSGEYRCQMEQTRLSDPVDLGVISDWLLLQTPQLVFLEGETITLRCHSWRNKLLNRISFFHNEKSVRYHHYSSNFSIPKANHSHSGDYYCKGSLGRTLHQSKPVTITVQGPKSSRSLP
Briefly: SPR.

The target in a further test is T7, cynomolgus FcRn (cynomolgus, UniProt Q8SPV9).
T7 chain 1: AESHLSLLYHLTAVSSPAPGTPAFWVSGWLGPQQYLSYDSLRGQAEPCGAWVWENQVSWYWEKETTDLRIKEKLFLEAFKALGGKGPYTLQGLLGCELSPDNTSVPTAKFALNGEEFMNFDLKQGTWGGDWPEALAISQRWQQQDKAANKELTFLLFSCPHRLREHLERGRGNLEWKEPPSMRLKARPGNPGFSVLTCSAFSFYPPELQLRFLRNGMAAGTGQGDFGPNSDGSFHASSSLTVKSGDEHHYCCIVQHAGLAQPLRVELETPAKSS
T7 chain 2: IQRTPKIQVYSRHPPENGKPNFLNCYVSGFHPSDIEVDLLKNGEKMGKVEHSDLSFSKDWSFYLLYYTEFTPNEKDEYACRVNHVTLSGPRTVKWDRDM
As to the kind of experiment: SPR, pH 6.0.

The next test has as its target human FcRn (human, UniProt P55899). As to the kind of experiment: SPR, pH 6.0.
The target of the next test is T8, human FcγRIIa (CD32A) (human, UniProt P12318).
T8 chain: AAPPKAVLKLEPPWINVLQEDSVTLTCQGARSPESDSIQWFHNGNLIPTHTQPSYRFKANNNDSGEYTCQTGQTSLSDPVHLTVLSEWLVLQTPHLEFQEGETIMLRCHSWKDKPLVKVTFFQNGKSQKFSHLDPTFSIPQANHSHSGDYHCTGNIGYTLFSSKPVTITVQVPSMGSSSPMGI
Briefly: SPR.

A further test addresses T9, murine FcγRI (mouse, UniProt P26151).
T9 chain: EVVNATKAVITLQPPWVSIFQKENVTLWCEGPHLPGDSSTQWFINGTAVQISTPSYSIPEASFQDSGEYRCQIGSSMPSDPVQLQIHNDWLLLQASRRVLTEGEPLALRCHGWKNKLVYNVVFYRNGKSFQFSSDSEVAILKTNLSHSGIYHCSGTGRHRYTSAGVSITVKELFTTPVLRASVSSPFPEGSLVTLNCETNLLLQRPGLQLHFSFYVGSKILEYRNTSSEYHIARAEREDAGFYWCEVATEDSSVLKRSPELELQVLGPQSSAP
Briefly: SPR.

The next test addresses T10, human FcγRIIb (CD32B) (human, UniProt P31994).
T10 chain: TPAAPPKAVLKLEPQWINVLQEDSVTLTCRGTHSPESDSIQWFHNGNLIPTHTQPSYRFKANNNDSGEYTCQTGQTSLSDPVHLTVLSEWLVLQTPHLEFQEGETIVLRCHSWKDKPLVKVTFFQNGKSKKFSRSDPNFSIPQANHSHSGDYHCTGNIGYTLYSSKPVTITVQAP
As to the kind of experiment: SPR.

Test [1] has as its target T11, cynomolgus FcγRIIa (CD32A) (cynomolgus).
T11 chain: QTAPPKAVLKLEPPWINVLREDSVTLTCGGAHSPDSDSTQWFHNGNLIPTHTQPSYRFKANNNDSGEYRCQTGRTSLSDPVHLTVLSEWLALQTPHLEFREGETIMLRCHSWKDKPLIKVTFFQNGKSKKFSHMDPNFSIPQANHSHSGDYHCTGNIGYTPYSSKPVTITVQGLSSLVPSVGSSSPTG
As to the kind of experiment: SPR.

The target in test [2] is T12, human FcγRIIIb (NA1) CD16B (human, UniProt O75015).
T12 chain: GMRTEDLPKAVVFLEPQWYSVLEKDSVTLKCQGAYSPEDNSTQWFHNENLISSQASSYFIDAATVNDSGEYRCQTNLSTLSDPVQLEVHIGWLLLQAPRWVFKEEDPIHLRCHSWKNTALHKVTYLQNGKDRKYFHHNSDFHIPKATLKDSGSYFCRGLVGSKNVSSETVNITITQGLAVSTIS
Briefly: SPR.

B1: Bi-scFv-Fc_02 (full) (antibody)
chain 1: SYVLTQPSSVSVAPGQTATISCGGHNIGSKNVHWYQQRPGQSPVLVIYQDNKRPSGIPERFSGSNSGNTATLTISGTQAMDEADYYCQVWDNYSVLFGGGTKLTVLGGSGGSGGSGGSGGSGGSGGSQVQLVQSGAEVKKPGESLKVSCKASGYTFTSYYMHWVRQAPGQGLEWMGIINPSGGSTSYAQKFQGRVTMTRDTSTSTVYMELSSLRSEDTAVYYCARGSAYYYDFADYWGQGTLVTVSSEPKSCDKTHTCPPCPAPEFEGGPSVFLFPPKPKDTLMISRTPEVTCVVVAVSHEDPEVKFNWYVDGVEVHNAKTKPREEQYNSTYRVVSVLTVLHQDWLNGKEYKCKVSNKALPAPIEKTISKAKGQPREPQVYTLPPSREEMTKNQVSLTCLVKGFYPSDIAVEWESNGQPENNYKTTPPVLDSDGSFFLYSKLTVDKSRWQQGNVFSCSVMHEALHNHYTQKSLSLSPGGGGGSGGGGSQVQLQESGPGLVKPSETLSLTCTVSGGSVSSGSYYWSWIRQPPGKGLEWIGYIYYSGSTNYNPSLKSRVTISVDTSKNQFSLKLSSVTAADTAVYYCARNPISIPAFDIWGQGTMVTVSSGGSGGSGGSGGSGGSGGSQPVLTQPPSVSVAPGKTARITCGGNNIGSKSVHWYQQKPGQAPVLVIYYDSDRPSGIPERFSGSNSGNTATLTISRVEAGDEADYYCQVWDTSSDHVLFGGGTKLTVL
chain 2: SYVLTQPSSVSVAPGQTATISCGGHNIGSKNVHWYQQRPGQSPVLVIYQDNKRPSGIPERFSGSNSGNTATLTISGTQAMDEADYYCQVWDNYSVLFGGGTKLTVLGGSGGSGGSGGSGGSGGSGGSQVQLVQSGAEVKKPGESLKVSCKASGYTFTSYYMHWVRQAPGQGLEWMGIINPSGGSTSYAQKFQGRVTMTRDTSTSTVYMELSSLRSEDTAVYYCARGSAYYYDFADYWGQGTLVTVSSEPKSCDKTHTCPPCPAPEFEGGPSVFLFPPKPKDTLMISRTPEVTCVVVAVSHEDPEVKFNWYVDGVEVHNAKTKPREEQYNSTYRVVSVLTVLHQDWLNGKEYKCKVSNKALPAPIEKTISKAKGQPREPQVYTLPPSREEMTKNQVSLTCLVKGFYPSDIAVEWESNGQPENNYKTTPPVLDSDGSFFLYSKLTVDKSRWQQGNVFSCSVMHEALHNHYTQKSLSLSPGGGGGSGGGGSQVQLQESGPGLVKPSETLSLTCTVSGGSVSSGSYYWSWIRQPPGKGLEWIGYIYYSGSTNYNPSLKSRVTISVDTSKNQFSLKLSSVTAADTAVYYCARNPISIPAFDIWGQGTMVTVSSGGSGGSGGSGGSGGSGGSQPVLTQPPSVSVAPGKTARITCGGNNIGSKSVHWYQQKPGQAPVLVIYYDSDRPSGIPERFSGSNSGNTATLTISRVEAGDEADYYCQVWDTSSDHVLFGGGTKLTVL
The term Kd denotes the concentration at which binding is half-saturated. High values mean a looser complex, low ones a tighter complex. Turning to B1, the binding result in the test with human FcγRIIc (CD32C), in the test with murine FcγRIII, in the test with human FcγRI (CD64), with murine FcγRIV (CD16-2), with murine FcγRIIb and with human FcγRIIa (CD32A) was “no binding” in each case. Also, the binding result (with murine FcγRI; with human FcγRIIb (CD32B); in test [1]; in test [2]) was “no binding” each time. In addition, the Kd with murine FcRn is 121 nM; with cynomolgus FcRn it was 268 nM; in the test with human FcRn, 410 nM.
